B1: G9N4 (VHH)
VHH: EVQLQASGGGFVQPGGSLRLSCAASGGTWRWTIMGWFRQAPGKEREFVSAISRTNSEYQYYADSVKGRFTISRDNSKNTVYLQMNSLRAEDTATYYCAEPTAVWADKGQEMQSYWGQGTQVTVSS
notes: Synthetic humanized sdAb; on M13 phage in the screening ELISA, purified with His and cMyc tags and immobilized in wells otherwise; also called GAL-9-specific sdAb G9N4; not shown: 6xHis and cMyc tags from vector pHEN2
B2: G9N3 (VHH)
VHH: EVQLQASGGGFVQPGGSLRLSCAASGDGSGWDIMGWFRQAPGKEREFVSAISRHDTTYSYYADSVKGRFTISRDNSKNTVYLQMNSLRAEDTATYYCATIPASWNKSYWGQGTQVTVSS
notes: Synthetic humanized sdAb; on M13 phage in the screening ELISA, purified with His and cMyc tags and immobilized in wells otherwise; also called GAL-9-specific sdAb G9N3; not shown: 6xHis and cMyc tags from vector pHEN2
B3: G13N1 (VHH, not shown: small tags and cut ends)
VHH: EVQLQASGGGFVQPGGSLRLSCAASGFGSNRSTMGWFRQAPGKEREFVSAISSLSSDPPYYADSVKGRFTISRDNSKNTVYLQMNSLRAEDTATYYCAPAGMRGVMEYWGQGTQVTVSS
B4: G13N4 (VHH, not shown: small tags and cut ends)
VHH: EVQLQASGGGFVQPGGSLRLSCAASGSSYAGSAMGWFRQAPGKEREFVSAISSDPDTKAYYADSVKGRFTISRDNSKNTVYLQMNSLRAEDTATYYCAISGQYPYARYWGHGTQVTVSS
B5: G13N6 (VHH, not shown: small tags and cut ends)
VHH: EVQLQASGGGFVQPGGSLRLSCAASGRTSSLTSMGWFRQAPGKEREFVSAISFSGSMFTYYADSVKGRFTISRDNSKNTVYLQMNSLRAEDTATYYCADKWMHKPANYWGQGTQVTVSS
B6: G13N5 (VHH, not shown: small tags and cut ends)
VHH: EVQLQASGGGFVQPGGSLRLSCAASGYTSNEDSMGWFRQAPGKEREFVSAISRGPSFRTYYADSVKGRFTISRDNSKNTVYLQMNSLRAEDTATYYCAIRLGRLYRYGDLTPKSAYYWGQGTQVTVSS
B7: G13N3 (VHH, not shown: small tags and cut ends)
VHH: EVQLQASGGGFVQPGGSLRLSCAASGRGSRWYGMGWFRQAPGKEREFVSAISAQHSTRAYYADSVKGRFTISRDNSKNTVYLQMNSLRAEDTATYYCAGYMSKMGERKWKYWGQGTQVTVSS
B8: G13N9 (VHH, not shown: small tags and cut ends)
VHH: EVQLQASGGGFVQPGGSLRLSCAASGRGSALTTMGWFRQAPGKEREFVSAISGDTGLYVYYADSVKGRFTISRDNSKNTVYLQMNSLRAEDTATYYCAGKWLGGRQADTRYWGQGTQVTVSS
B9: G9N1 (VHH)
VHH: EVQLQASGGGFVQPGGSLRLSCAASGDTSGEYSMGWFRQAPGKEREFVSAISDQGGIEIYYADSVKGRFTISRDNSKNTVYLQMNSLRAEDTATYYCAHTFYDMPDGYRQYWGQGTQVTVSS
notes: Synthetic humanized sdAb; on M13 phage in the screening ELISA, purified with His and cMyc tags and immobilized in wells otherwise; also called GAL-9-specific sdAb G9N1; not shown: 6xHis and cMyc tags from vector pHEN2
B10: G13N8 (VHH)
VHH: EVQLQASGGGFVQPGGSLRLSCAASGTTWQETKMGWFRQAPGKEREFVSAISRGPNYYPYYADSVKGRFTISRDNSKNTVYLQMNSLRAEDTATYYCADEWMGSINARGHSGYYWGQGTQVTVSS
notes: Synthetic humanized sdAb; on M13 phage in the screening ELISA, purified with His and cMyc tags otherwise; also called GAL-13 sdAb G13N8; not shown: 6xHis and cMyc tags from vector pHEN2
B11: G13N2 (VHH)
VHH: EVQLQASGGGFVQPGGSLRLSCAASGSTSRSSGMGWFRQAPGKEREFVSAISYRGSGARYYADSVKGRFTISRDNSKNTVYLQMNSLRAEDTATYYCAMWQRQIQPGTRPVWKYWGQGTQVTVSS
notes: Synthetic humanized sdAb; on M13 phage in the screening ELISA, purified with His and cMyc tags otherwise; also called GAL-13 sdAb G13N2; not shown: 6xHis and cMyc tags from vector pHEN2
B12: G13N10 (VHH)
VHH: EVQLQASGGGFVQPGGSLRLSCAASGRTSNQTIGWFRQAPGKEREFVSAISARFDEYGYYADSVKGRFTISRDNSKNTVYLQMNSLRAEDTATYYCALGWPQKSTWRAYTAEYWGQGTQVTVSS
notes: Synthetic humanized sdAb; on M13 phage in the screening ELISA, purified with His and cMyc tags otherwise; also called Nb #10; GAL-13 sdAb G13N10; not shown: 6xHis and cMyc tags from vector pHEN2

Each binder was assayed against T1, recombinant C-terminal domain of human GAL-9 (human, UniProt O00182 210-355) (assay: ELISA: sdAb immobilized at 1 µM, 5 µM GAL-9C).
T1 construct: also called GAL-9C; GAL-9C (210-355)
T1 sequence (O00182 210-355 limits assumed): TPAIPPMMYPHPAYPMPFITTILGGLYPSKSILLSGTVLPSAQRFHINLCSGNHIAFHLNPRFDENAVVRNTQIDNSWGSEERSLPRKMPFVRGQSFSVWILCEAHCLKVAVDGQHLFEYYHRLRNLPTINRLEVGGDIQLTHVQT
Method: (§1) FIGS. 19A-B show the binding of recombinant N-terminal domain of human GAL-9 (GAL-9N, FIG. 19A) and recombinant C-terminal domain of human GAL-9 (GAL-9C, FIG. 19B) to GAL-9-specific sdAbs as measured by ELISA. Briefly, sdAbs were immobilized at 1 μM for 1 h at RT, followed by blocking with PBS containing 10% (v/v) BSA and 0.05% (v/v) Tween™ 20. 5 μM of recombinant GAL-9N or GAL-9C were incubated for 1 h at RT. […] The colorimetric assay was carried out with 3,3′,5,5′-tetramethylbenzidine per the manufacturer's recommendations. Data (mean values±SD) from three independent experiments is shown. Statistical differences were assessed using Tukey's multiple comparisons test. RT=room temperature.
B1: binds. B2: binds.

What follows are binders tested against T2, recombinant human galectin-13 (human, UniProt Q9UHV8 1-139, biotinylated for the phage ELISA; labeled with FITC for the HepG2 cell binding assay) (assay: cell-based or functional assay).
T2 sequence (looked up): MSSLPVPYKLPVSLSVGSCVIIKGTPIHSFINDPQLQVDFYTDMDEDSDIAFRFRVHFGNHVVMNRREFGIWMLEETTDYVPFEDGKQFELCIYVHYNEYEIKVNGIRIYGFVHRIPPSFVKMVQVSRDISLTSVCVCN
In the case of B3, the “inhibition of galectin-13-induced apoptosis of Jurkat T cells” value (“inhibition” for short) is reported as -27%. In the case of B4, the “inhibition” value is reported as -31%. With B5 the “inhibition” value was -27%. In the case of B6, the “inhibition” value is reported as -44%. For B7, the “inhibition” value was -23.5%. In the case of B8, the “inhibition” value is reported as -33%.

These binders were tested against T3, recombinant N-terminal domain of human GAL-9 (human, UniProt O00182 1-148) (assay: ELISA: sdAb immobilized at 1 µM, 5 µM GAL-9N).
T3 construct: also called GAL-9N; Gal-9N
T3 sequence (O00182 1-148 limits assumed): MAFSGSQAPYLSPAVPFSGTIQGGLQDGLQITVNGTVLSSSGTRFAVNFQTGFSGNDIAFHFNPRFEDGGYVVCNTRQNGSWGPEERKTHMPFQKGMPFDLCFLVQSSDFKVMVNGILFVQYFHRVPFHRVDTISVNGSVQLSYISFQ
Method: as §1
B9: binds. B1: binds. B2: binds.

What follows are binders tested against T2, recombinant human galectin-13 (assay: ELISA: sdAb immobilized at 1 µM, 5 µM galectin).
Method: Briefly, Nbs were immobilized at 1 μM for 1 h at RT, followed by blocking with PBS containing 10% (v/v) BSA and 0.05% (v/v) Tween™ 20. 5 μM of galectin were incubated for 1 h at RT. […] The colorimetric assay was carried out with 3,3′,5,5′-tetramethylbenzidine per the manufacturer's recommendations. Data (mean values±SD) from one experiment is shown. Statistical differences were assessed using Dunnett's multiple comparisons test. RT=room temperature
B9: binds. B2: binds.

These binders were tested against T2, recombinant human galectin-13 (assay: non-adsorbed phage ELISA on biotinylated GAL-13).
B10: binds. B11: binds. B12: binds.
